These results are taken from the supplement of paper PMC10567573.

± gives the standard deviation.

This data set is described as follows: protein stability index of a GFP-peptide fusion (GPS, HEK-293T) (PSI 1-6); higher = more stable. The settings on record: c terminus: a fixed tail appended.
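Note: 24-mer peptide tiles fused after GFP, lentivirally expressed, FACS-sorted into six equal bins by GFP/DsRed ratio, decoded by Illumina sequencing, PSI is the read-weighted mean bin number.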

With AAAHYTGDKASPDQNASTHTPQSS [CLINT1], the protein stability index amounted to 5.52 ± 0.25 (treatment: DMSO) and 5.524 ± 0.042 (treatment: MLN4924 1 uM, 8 h).

With AAFGHVQRAEMLPKTSGTRATSLG [CPOX], the protein stability index came out at 3.82 ± 0.18 (treatment: DMSO) and 3.91 ± 0.077 (treatment: MLN4924 1 uM, 8 h).

For the sequence AAGYIQCMHEVHTFVSTCQAIDAT [HES6], the protein stability index by setting is: (treatment: DMSO) 1.93 ± 0.6; (treatment: MLN4924 1 uM, 8 h) 2.12 ± 0.37.

Regarding AALSASMASLLEDLSHIEGLSQAP [SERTAD1], the protein stability index was found to be 2.81 ± 0.22 (treatment: DMSO) and 2.76 ± 0.26 (treatment: MLN4924 1 uM, 8 h).

Regarding AANEQLTRAILRERICSEEERAKA [CHCHD3], the protein stability index runs as follows: (treatment: DMSO) 4.82 ± 0.23; (treatment: MLN4924 1 uM, 8 h) 4.97 ± 0.19.

Regarding AAWQGHLPIVKLLAKQPGVSVNAQ [RIPK4], the protein stability index by setting is: (treatment: DMSO) 2.57 ± 0.38; (treatment: MLN4924 1 uM, 8 h) 3.07 ± 0.61.

Turning to ADCVRGPDGVCLSGGRGPQGDKAI [PBXIP1], the protein stability index is, setting by setting: (treatment: DMSO) 4.52 ± 0.57; (treatment: MLN4924 1 uM, 8 h) 4.78 ± 0.22.

In the case of ADNKIVSHLLVAEPEKIYAMPDPT [ESRRG], the protein stability index is 4.23 ± 0.17 (treatment: DMSO) and 4.22 ± 0.27 (treatment: MLN4924 1 uM, 8 h).

On to ADRPFSAPWWFWLSLTGVSLAGAL [POMT2], for which the protein stability index runs as follows: (treatment: DMSO) 2.93 ± 0.7; (treatment: MLN4924 1 uM, 8 h) 3 ± 0.48.

Turning to AEPAPRAREGGGCGRSEVRPVAPR [SMAD6], the protein stability index runs as follows: (treatment: DMSO) 4.35 ± 0.093; (treatment: MLN4924 1 uM, 8 h) 4.15 ± 0.4.

As for AFACQVAGCCQVFDALDDYEHHYH [ZNF511], the protein stability index runs as follows: (treatment: DMSO) 2.97 ± 0.45; (treatment: MLN4924 1 uM, 8 h) 2.74 ± 0.5.

As for AFCSSDEELEDSKALLYLPIAPEV [RBBP5], the protein stability index amounted to 3.7 ± 0.21 (treatment: DMSO) and 3.66 ± 0.28 (treatment: MLN4924 1 uM, 8 h).

For AFELLGKNTFEFLKENNFQPYPLP [CLK3], the protein stability index is 2.51 ± 0.33 (treatment: DMSO) and 2.65 ± 0.086 (treatment: MLN4924 1 uM, 8 h).

AFHDGQRSRLRPRDDLDRLGVFLD [TRIM14]: the protein stability index came out at 3.35 ± 0.26 (treatment: DMSO) and 3.66 ± 0.31 (treatment: MLN4924 1 uM, 8 h).

In the case of AGEAHMAADGETNGSCENSDASSH [EHMT1], the protein stability index reads like this: (treatment: DMSO) 5.55 ± 0.36; (treatment: MLN4924 1 uM, 8 h) 5.69 ± 0.15.

Turning to AGFQDIPKRCLKAREHFGTVKTHL [TSN], the protein stability index came out at 2.81 ± 0.44 (treatment: DMSO) and 2.78 ± 0.24 (treatment: MLN4924 1 uM, 8 h).

As for AGMGKVTSASFGEESTPGQTNSET [HDAC6], the protein stability index runs as follows: (treatment: DMSO) 5.3 ± 0.29; (treatment: MLN4924 1 uM, 8 h) 5.25 ± 0.1.

For AGSPIRHENAVQGSAVEVQTYQPP [ISL2], the protein stability index runs as follows: (treatment: DMSO) 4.91 ± 0.14; (treatment: MLN4924 1 uM, 8 h) 5.04 ± 0.19.

For the sequence AGSSLPTSSKVNATVPSNMMSVNG [ACBD3], the protein stability index is, setting by setting: (treatment: DMSO) 4.13 ± 0.19; (treatment: MLN4924 1 uM, 8 h) 4.16 ± 0.14.

As for AHTATASAVEGAPPARPRPRSPEC [IRX6], the protein stability index is, setting by setting: (treatment: DMSO) 5.37 ± 0.13; (treatment: MLN4924 1 uM, 8 h) 5.19 ± 0.28.

In the case of AICGDRATGKHYGASSCDGCKGFF [HNF4A], the protein stability index was 2.8 ± 0.24 (treatment: DMSO) and 2.98 ± 0.31 (treatment: MLN4924 1 uM, 8 h).

For AIEGIPGSDYVNANYIDGYRKQNA [PTPRD], the protein stability index was 4.09 ± 0.24 (treatment: DMSO) and 4.6 ± 0.12 (treatment: MLN4924 1 uM, 8 h).

As for AKKAMGYQPLVTMDDAMERTVQSF [NSDHL], the protein stability index is, setting by setting: (treatment: DMSO) 3.62 ± 0.069; (treatment: MLN4924 1 uM, 8 h) 3.46 ± 0.39.

Regarding AKVLTLSDDLERTIEERVNILFDF [EIF5], the protein stability index is, setting by setting: (treatment: DMSO) 2.33 ± 0.36; (treatment: MLN4924 1 uM, 8 h) 2.4 ± 0.21.

Consider AKYEYMEEQVILTEKDLLEDGFGE [SAT1], for which the protein stability index runs as follows: (treatment: DMSO) 4.02 ± 0.4; (treatment: MLN4924 1 uM, 8 h) 4.06 ± 0.37.

In the case of ALEALEPFWEVLVRSTETVERDNM [HDAC6], the protein stability index is 2.95 ± 0.23 (treatment: DMSO) and 3.12 ± 0.45 (treatment: MLN4924 1 uM, 8 h).

For the sequence ALKLFPVQPCSAVHLLLKKVLFAL [FAM189A2], the protein stability index was found to be 2.39 ± 0.17 (treatment: DMSO) and 2.35 ± 0.35 (treatment: MLN4924 1 uM, 8 h).

For ALLDLHFPSDHLGDLGDPFHLGLE [TFE3], the protein stability index is, setting by setting: (treatment: DMSO) 2.37 ± 0.36; (treatment: MLN4924 1 uM, 8 h) 2.32 ± 0.28.

Consider ALLSCCLTVVSFYQVAALQGDLAS [TNFSF13B], for which the protein stability index reads like this: (treatment: DMSO) 3.57 ± 0.21; (treatment: MLN4924 1 uM, 8 h) 3.2 ± 0.26.

As for ALPDSVLRRFVVRTMCAVLGLVAR [AUP1], the protein stability index was found to be 2.51 ± 0.21 (treatment: DMSO) and 2.32 ± 0.44 (treatment: MLN4924 1 uM, 8 h).

Consider ALPKATILDLSCNKLTTLPSDFCG [LRRC59], for which the protein stability index stood at 2.82 ± 0.16 (treatment: DMSO) and 3.02 ± 0.28 (treatment: MLN4924 1 uM, 8 h).

ALRKTGQYSGMLDCARRILAREGV [SLC25A25] returned a protein stability index (treatment: DMSO) of 2.29 ± 0.18 and a protein stability index (treatment: MLN4924 1 uM, 8 h) of 2.27 ± 0.15.

ALSRKKSQGLAREQHAGTSEGLHL [FBF1]: the protein stability index is 4.26 ± 0.28 (treatment: DMSO) and 3.78 ± 0.42 (treatment: MLN4924 1 uM, 8 h).

ALVHDHQAYAHYLLATFPRRALAP [ANKRD9]: the protein stability index worked out at 2.22 ± 0.21 (treatment: DMSO) and 2.4 ± 0.19 (treatment: MLN4924 1 uM, 8 h).

Regarding ALWKHLKSMHREELEKSGHGQAGQ [ZBED2], the protein stability index by setting is: (treatment: DMSO) 2.98 ± 0.38; (treatment: MLN4924 1 uM, 8 h) 3.48 ± 0.43.

Take ANAVISVSGINHDVTSGDHGDYFR [CPN1]: the protein stability index is, setting by setting: (treatment: DMSO) 3.58 ± 0.13; (treatment: MLN4924 1 uM, 8 h) 3.48 ± 0.31.
